Patent publication US20060258842A1 (IQ THERAPEUTICS, published 2006)

Key:
[1] = biological target: T1, GST fusion of protective antigen domains 1 to 4 (Bacillus anthracis, UniProt P13423 30-764); test: ELISA, plate coated with GST-PA domain protein, goat anti-human IgG HRP
T1 construct: domain: 1 to 4

[2] = biological target: T2, GST fusion of protective antigen domains 1 to 2 (Bacillus anthracis, UniProt P13423 30-516); test: as above
T2 construct: domain: 1 to 2

[3] = biological target: T3, GST fusion of protective antigen domains 1 to 3 (Bacillus anthracis, UniProt P13423 30-624); test: as above
T3 construct: domain: 1 to 3
T3 sequence (P13423 30-624 limits assumed): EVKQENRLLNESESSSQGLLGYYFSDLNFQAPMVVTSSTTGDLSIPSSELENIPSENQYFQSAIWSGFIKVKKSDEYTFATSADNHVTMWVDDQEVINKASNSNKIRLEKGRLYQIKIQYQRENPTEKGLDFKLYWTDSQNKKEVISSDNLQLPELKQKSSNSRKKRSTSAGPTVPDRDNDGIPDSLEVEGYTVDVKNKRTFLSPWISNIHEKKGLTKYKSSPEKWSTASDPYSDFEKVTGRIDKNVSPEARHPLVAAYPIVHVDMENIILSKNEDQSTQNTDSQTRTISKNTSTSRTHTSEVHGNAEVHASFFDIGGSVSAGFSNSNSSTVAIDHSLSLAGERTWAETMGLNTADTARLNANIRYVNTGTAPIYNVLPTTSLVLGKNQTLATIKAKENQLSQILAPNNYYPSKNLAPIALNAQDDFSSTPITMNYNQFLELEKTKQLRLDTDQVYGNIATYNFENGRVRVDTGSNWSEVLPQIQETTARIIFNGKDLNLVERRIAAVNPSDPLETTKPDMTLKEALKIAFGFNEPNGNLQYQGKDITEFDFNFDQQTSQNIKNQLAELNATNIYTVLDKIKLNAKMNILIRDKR

[4] = biological target: T4, GST fusion of protective antigen domain 4 (Bacillus anthracis, UniProt P13423 625-764); test: as above
T4 construct: domain: 4
T4 sequence (P13423 625-764 limits assumed): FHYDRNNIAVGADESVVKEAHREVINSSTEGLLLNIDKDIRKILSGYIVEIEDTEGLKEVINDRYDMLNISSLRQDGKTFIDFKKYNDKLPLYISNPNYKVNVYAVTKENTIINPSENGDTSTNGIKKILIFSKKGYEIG

[5] = biological target: T5, GST fusion of protective antigen domain 1 (Bacillus anthracis, UniProt P13423 30-287); test: as above
T5 construct: domain: 1
T5 sequence (P13423 30-287 limits assumed): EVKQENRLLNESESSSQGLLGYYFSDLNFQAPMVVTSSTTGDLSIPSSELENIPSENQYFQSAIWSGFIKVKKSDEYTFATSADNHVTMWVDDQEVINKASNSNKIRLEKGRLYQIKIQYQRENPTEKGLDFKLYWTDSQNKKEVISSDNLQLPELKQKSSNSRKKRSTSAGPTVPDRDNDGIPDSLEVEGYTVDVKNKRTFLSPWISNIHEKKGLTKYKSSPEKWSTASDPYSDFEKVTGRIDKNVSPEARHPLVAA

[6] = biological target: T6, GST fusion of protective antigen domains 3 to 4 (Bacillus anthracis, UniProt P13423 517-764); test: as above
T6 construct: domain: 3 to 4
T6 sequence (P13423 517-764 limits assumed): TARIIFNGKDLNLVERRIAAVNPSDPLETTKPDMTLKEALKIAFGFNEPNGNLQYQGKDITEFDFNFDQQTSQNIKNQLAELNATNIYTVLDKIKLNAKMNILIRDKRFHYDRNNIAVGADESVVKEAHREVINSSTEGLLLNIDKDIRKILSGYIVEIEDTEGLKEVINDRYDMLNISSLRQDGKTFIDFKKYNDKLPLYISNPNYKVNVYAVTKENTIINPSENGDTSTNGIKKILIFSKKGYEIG

[7] = biological target: Bacillus anthracis Protective Antigen (Bacillus anthracis, UniProt P13423 30-764); test: SPR (BIAcore 3000), PA amine-coupled to CM5 chip, antibody as analyte
Chain of Bacillus anthracis Protective Antigen (P13423 30-764 limits assumed): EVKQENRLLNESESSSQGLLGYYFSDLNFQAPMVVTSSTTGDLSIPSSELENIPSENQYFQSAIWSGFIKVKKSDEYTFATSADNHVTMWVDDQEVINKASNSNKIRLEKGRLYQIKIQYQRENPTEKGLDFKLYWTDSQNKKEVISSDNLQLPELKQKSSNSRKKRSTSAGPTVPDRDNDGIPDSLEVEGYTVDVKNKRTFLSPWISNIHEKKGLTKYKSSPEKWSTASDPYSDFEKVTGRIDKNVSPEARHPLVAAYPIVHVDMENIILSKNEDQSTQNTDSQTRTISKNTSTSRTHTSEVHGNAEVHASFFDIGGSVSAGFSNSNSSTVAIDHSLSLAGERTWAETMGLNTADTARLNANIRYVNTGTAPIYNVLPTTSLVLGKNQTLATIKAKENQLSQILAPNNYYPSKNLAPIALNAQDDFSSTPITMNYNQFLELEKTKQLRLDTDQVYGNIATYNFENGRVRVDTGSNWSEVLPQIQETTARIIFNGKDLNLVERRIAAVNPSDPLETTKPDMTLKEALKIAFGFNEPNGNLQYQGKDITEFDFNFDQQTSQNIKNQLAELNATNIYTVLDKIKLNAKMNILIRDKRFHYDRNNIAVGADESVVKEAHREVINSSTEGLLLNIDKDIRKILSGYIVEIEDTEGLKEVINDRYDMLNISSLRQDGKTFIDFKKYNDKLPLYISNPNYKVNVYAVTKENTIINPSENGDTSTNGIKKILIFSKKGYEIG

T2 sequence (P13423 30-516 limits assumed): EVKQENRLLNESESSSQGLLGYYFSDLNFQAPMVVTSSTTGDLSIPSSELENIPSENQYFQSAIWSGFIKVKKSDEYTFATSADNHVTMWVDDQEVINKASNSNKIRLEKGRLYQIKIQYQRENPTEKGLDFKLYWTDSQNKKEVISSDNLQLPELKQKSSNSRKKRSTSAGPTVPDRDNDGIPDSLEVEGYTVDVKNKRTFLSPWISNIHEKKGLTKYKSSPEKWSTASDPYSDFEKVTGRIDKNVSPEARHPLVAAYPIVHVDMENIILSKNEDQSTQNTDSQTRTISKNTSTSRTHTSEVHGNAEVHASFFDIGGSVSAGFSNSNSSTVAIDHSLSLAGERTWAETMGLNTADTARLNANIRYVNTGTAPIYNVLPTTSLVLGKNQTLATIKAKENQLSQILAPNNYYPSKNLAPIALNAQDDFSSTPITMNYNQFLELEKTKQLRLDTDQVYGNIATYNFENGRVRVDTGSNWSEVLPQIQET
T1 sequence (P13423 30-764 limits assumed): as the sequence (P13423 30-764 limits assumed) above

B1: human monoclonal antibody IQNPA-1 (antibody, V domains shown)
VH: QVQLVQSGAEVKKPGASVKVSCKASGYTFTSNAIQWVRQAPGQRLEWVGWINGGDGNTKYSQKFQGRVTISRDISASTAYMELSSLRSEDTAVYYCARHRLQRGGFDPWGQGTLVTVSS
VL: EIVLTQSPGTLSLSPGERATLSCRASQSVSYSSLAWYQQKPGQAPSLLIYGASSRATGIPDRFSGSGSGPDFTLTISRLEPEDFAVYYCQHYGNSPYTFGQGTKLEIKR
[1]
  End point titre: 256000
[2]
  End point titre: < 100
[3]
  End point titre: < 100
[4]
  End point titre: 256000
[5]
  End point titre: < 100
[6]
  End point titre: 256000
[7]
  Ka: 8.31e+09 M⁻¹
  Kd: 0.12 nM
  koff: 1.93e-05 s⁻¹
  kon: 160000 M⁻¹ s⁻¹

B2: human monoclonal antibody IQNPA-2 (antibody, V domains shown)
VH: QVQLVQSGAEVKKPGASVKVSCKASGYTFTSNAIQWVRQAPGQRLEWVGWINGGDGNTKYSQKFQGRVTISRDISASTAYMELSSLRSEDTAVYYCARHRLQRGGFDPWGQGTLVTVSS
VL: EIVLTQSPGTLSLSPGERATLSCRASQSVSYSSLAWYQQKPGQAPSLLIYGASSRATGIPDRFSGSGSGPDFTLTISRLEPEDFAVYYCQHYGNSPYTFGQGTKLEIKR
[1]
  End point titre: 128000
[2]
  End point titre: < 100
[3]
  End point titre: < 100
[4]
  End point titre: 128000
[5]
  End point titre: < 100
[6]
  End point titre: 256000
[7]
  Ka: 9.86e+09 M⁻¹
  Kd: 0.101 nM
  koff: 1.81e-05 s⁻¹
  kon: 178000 M⁻¹ s⁻¹
